Test results taken from the nanobody polyreactivity screen of Harvey et al. (2022).

Assay: yeast display, Sf9 membrane polyspecificity reagent, FACS + sequencing; frameworks hold sequencing errors
Outline: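 After 36–48 hours of galactose induction, yeast (Saccharomyces cerevisiae BJ5465) displaying a synthetic nanobody library were stained at 4 °C for 1 hour with 10% biotinylated, detergent-solubilized Sf9 membrane reagent. Streptavidin microbeads enriched the stained cells before FACS sorting into low and high (top ~1%) gates on anti-HA and streptavidin fluorescence. Each clone's polyreactivity label reflects its gate of origin.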

Sequence	polyreactivity (PSR sort gate)
QVQLVESGGGLVQAGGSLRLSCAASGFIFSGYAMGWYRQAPGKERELVAAISGGGSTYYADSVKGRFTSSRDNAKNTVYLQMNNLKPEETADYYCAARVYWSVRYYYWGQGTQVTVSS	high polyreactivity
QVQLVESGGGLVQAGGSLRLSCAASGFTFAYYAMGWYRQAPGKERELVAAISSGGGSTYYADSVKGRFTISRDNAKNTVYLQMNSLKPEDTAVYYCATTIQISYDSIWYDYWGQGTQVTVSS	high polyreactivity
QVQLVESGGGLVQAGGSLRLSCAASGFTFASNAMGWYRPAPWKERELVAGISRTGTTTYYADSVKGRFTISRDNAKNTVYLQMNSLKPEDTAVYYCAASKQAVKYRSQRYYYWGQGTQVTVSS	high polyreactivity
QVQLVESGGGLVQAGGSLRLSCAASGSTFYIYAMGWYRQAPGKERELVAAIDWNDGSTYYADSVKARFTISRDNAKNTVYLQMNSLKPEDTAVYYCAAAIYIYRGGTYDYWGQGTQVTVSS	high polyreactivity
QVQLVESGGGLVQAGGSLRLSCAASGRIFYRNAMGWYRQAPGKERELVAAITIGTNTYYADSVKGRFTISRDNAKITVYLQMNSLKPEDTAVYYCAVAVFLYTGGVDYWGQGTQVTVSS	low polyreactivity
QVQLVESGGGLVQAGGSLRLSCAASGSTFQGYAMGWYGQAPGKERELVAAINYSGGSTYYADSVKGRFTISRDNAKNTVYLQMNSLKPEDTAVYFCAARWYAVRDDYIVRYDYWGQGTQVTVSS	high polyreactivity
QVQLVESGGGLVQAGGSLRLSCAASGSIFSIYAMGWYRQAPGKERELVAAIDSGTSTTYADSVKGRFTISRDNAKNTVYLQMKSLKPEDTAVYYCAAALYSDVAAVATYGYYWGQGTQVTVSS	low polyreactivity
QVQLVESGGGLVQAGGSLRLSCAASGYIFAGYALGWYRQAPGKERELVARISRRGGITYYADSVKGRFTISRDNAKNTVYLQMNSLKPEDTAVYYCNGLGQSSSYDYWGQGTQVTVSS	high polyreactivity
QVQLVESGGGLVQAGGSLRLSCAASGSIFESYVMGWYRQAPGKERELVAAISSGGSTYYADSVKGRFTISRDNAKNTVYLQMNSLKPEDTAVYYCNTEVVRFKYDYWGQGTQVTVSS	low polyreactivity
QVQLVESGGGLVQAGGSLRLSCAASGRTFPYYAMGWYRQAPGKERELVARITSGSGTYYADSVKGRFTISRDNAKNTVYLQMNSLKPEDTAVYYCAAREPGVGYVGHYTGLDYWGQGTQVTVSS	low polyreactivity
QVQLVESGGGLVQAGGSLRLSCAASGFTFYKNTMGWYRQAPGKERELVAAISGSGGRTYYADSVKGRFTISRDNAKNTVYLQMNSLKPEDTAVYYCNAAARYRWQYDYSLYEYGHWGQGTQVTVSS	high polyreactivity
QVQLVESGGGLVQAGGSLRLSCAASGSTFASYAMGWYRQAPGKEREFVAAISRSGGSTYYADSVKGRFTISRDNAKNTVYLQMTSLKPEDTAVYYCAARSPSADEYYYWGQGTQVTVSS	low polyreactivity
QVQHVESRGGLVQAGGSLRLSCAASGIIFSRNAMGWSRKAPGKERELLSGITSSGGTTYYADSVKGRFTISRDNAKNTVYLQMNSLKAEDTAVYYCAAYSTQNYSYRRYYYWGQGTQVTVSS	high polyreactivity
QVQLVESGGGLVQAGGSLRLSCAATRSTSSKYAMGWYRQAPGKERELVAAITRSGGRTYYAVSVMGRFTISRDYAKNTVYLQMNSLKPEDTAVYYCAAAGVYWEFDYWGQGTQVTVSS	high polyreactivity
QVQLVESGGALVQAGGSLRLSCAASGSTFYYYAMGWYRQAPGKEREFVAAISGGDGTTSYADSVKGRFTISRDNAKKTVYLQMNSLKPEDTAFYYCASPYTSYLYGYDYWGQGTQVTVSS	low polyreactivity
QVQLVESGGGLVQAGGSLRLSCAASARIFPVYAMGWYRQAPGKERELVAAISRSAGRTYYADSVKGRFTISRDNAKNTVYLQMNRLKPEDTAVYFCAAQSPYGYDYWGQGTQVTVSS	low polyreactivity
QVQLVESGGGLVQAGGSLRLSCAASGRTFFFYAMGWYRQAPGKERELVASITWSGGTRTYYADSVKGRFTISRDNAKNTVYLQMNSLKPEDTAFYYCAATDSSYWFNRYGGKYYYWGQGTQVTVSS	high polyreactivity
QVQLVESGGGLVQAGGSLRLSCAASGRTLEHNAMGWYRQAPGKERELVAAISGSGGTTYYADSVKGRFTISRDNAKNTVYLQMNSLKPEDTAVYYCNAKLYRSFDYWGQGTQVTVSS	low polyreactivity
QVQLVESGGGLVQAGGSLRLSCAASGRIFSRYTMGWYRQAPGKERELVAGITRGGGSTYYADSVKGRFTISRDNAKNTVYLQMNSLKPEDTAVYYCAATFAYHDGDYWGQGTQVTVSS	low polyreactivity
QVQLVESGGGLVQAGRSLRLSCAASGLTFLAYDMGWYRQAPGKVRQLVAAITGGGSTHYADSVKGRFTISRDNAKNTVYLQMTSLKPDDTAVSYCNADVYVYSVTSHYPSYRLDYWGHGTQVTVSS	high polyreactivity
QVQLVESGGGLVQAGGSLRLSCAASGSIFGLYVMGWYRQAPGKERELVAAITGRGGSTYYADSVKGRFTISRDNAKNTVYLQMNSLKPEDTAVYYCAALRYTFAGRFDYWGQGTQVTVSS	high polyreactivity
QVQLVESGGGLVQAGGSLRLSCAASGFIFGSYAMGWYRQAPGKERELVAAISYRGGTTYYADSVKGRFTISRDNAKNTVYLQMNSLKPEDTAVYYCAADSPENRYNYWGQGTQVTLSS	high polyreactivity

Sequence	polyreactivity (PSR sort gate)
QVQLEESGGGLVQAGGSLRLSCAASGRIFVRNGMGWYRQAPGKESELVPAITSAGSTNYADSVKGRFTISRDNAKNTVYLQMNSLIPEDTAVYYCATEPSGYYDSYYYFTYSDNYWGQGTQVTVSS	low polyreactivity
QVQLVESGGGLVQAGGSLRLSCAASGSIFSTYAMGWYRQAPGKERELVAAISTRGGRTYYADSVKGRFTISRDNAKNTVYLQMNSLKPEDTAVYYCAAKRGKTYQRFDYWGQGTQVTVSS	high polyreactivity
QVQLQESSGGLVQAGGSLRMSCAASGTIFHFHIMGWYRQAPGKVREFVAAISYGTSTYYADSVKGRFTISRDNAKNTVYLLMNRQKPEDTEVYYCAVYEYLEVYCWYWGQGTQGTVSS	low polyreactivity
QVQLVESGGGLVQAGGSLRLSCAASGSTFWSYAMGWYRQAPGKEREFVAAISRSGDSTYYADSVKGRFTISRDNAKNTVYLQMNSLNPEDTAVYYCNAKLVRRSYGSYYYTYDYWGQGSQVTVSS	high polyreactivity
QVQLVESGGGLVQAGGSLRLSCAASGSIFESNAMGWYRPAPGKEREFVAAIDQNDGSTNYADSVKGRFTISRDHAKNTVYLQMNSLKPEDTAVYYCAKYWGYLGYYEFDYWGQGTQVTVSS	low polyreactivity
QVQLVESGGGLVQAGGSLRLSCAASGSIFSNYAMGWYRQAPGKERELVAAITLSSGGTYYADSVKGRFTISRDNAKNTVYLQMNSLKPEDTAVYYCAAQYKYFIHRYYYWGQGTQVTVSS	high polyreactivity
QVQLVESGGGLVKAGCSLRLSCAASGRTFGTYAMGWYRQAPGKERELVAAISSGGSTYADSVKGRFTISRDNAMNTVYLQMKSLKPEDTAVYYCTTRYPMGGTYTRYPLKGDYWGQGTQVTVSS	high polyreactivity
QVQLVESGGGLVQAGGSLRLICAASGSTFGRNAMGWSRQAPGKERELVAAISSGGRTYYADSVKGRFTSSRDNAKHTVYVQLNSLKPEDSAVYYCARDDYGTLVKLYVRGFNYWGQGTQVTVSS	low polyreactivity
QVQLVESGGGLVQAGGSLRLSCAASGRTFSEYAMGWYRQAPGKERELVAAITENGGSTYYADSVKGRFTISRDIAKNTVYLQMNSLKPEDTAVYYCAAETWADWYSEFYWGQGTLVTVSS	high polyreactivity
QVQLVESGVGIVQAGGSLRLSCAASGRIISGYAMGWYRHAPGKERELVATISSGGGTNYADSVKGRFTISRDNAKNTVYLQMNSLKPEDTAVYYCNKAWGYWSIRGVTHRYGYWGQGTQVTVSS	high polyreactivity
QVQLVESGGGLVQAGGSLRLSSAASGSIFYGNAMGWYRQAPGKESELVAAISARGGSTNYADSVKGRFTISRDNAKITVYLQMNSLIPEDTAVYYCAAKVRVWYYRMDSWGQGTQVTVSS	low polyreactivity
QVQLVESGGGLVQAGGSLRLSCAASGSIFNYYTMGWYRQAPGKERELVAAISWSGGSTYYADSVKGRFTISRDNAKNTVYLQMNSLKPEDTAVYYCAAVVRYSQAGYYYWGQGTQVTVSS	high polyreactivity
QVQLVESGGGLVQAGGRLRLSCAASGFIFLNYTMGWYRQAPGKEREMVADISNGSDRTYFADSLKGRFTISRENAKNTVYLQMNSLKPEDTAVYYCAKDRDFSSPPTESGFDYWGQGTQVTVSS	low polyreactivity
QVQLVESGGGLVQAGGSLRLSCAASGSIFVYNDMGGYRQAPGKERELVAGIDWSGDRTYADSVKGRFTISRDNAKNTVYLQMNSLKPEDTAVYYCIADEWRWDEILPYAVDYWGQGTQVTVSS	low polyreactivity
QVQLVESGGGLVQAGGSLRLSCAASGSILEIYAMGWYRQAPGKESEFVASISWDVSSTYYADSVKGRFTISRDNAKNTVYLQMNSLKPEDTAVYYCATSLVWGLYDWYYDLSAAFDYWGQGTQVTVSS	low polyreactivity
QVHLLESGGGLVQAGGSLRLSCAASGRTFYDYTMGWYRQAPGKERELVAVISKRGGSTYYADSVKGRFTISRDNAKNTVYLQMNSLKPEDTAVYYCAAKSGRNVYQKVDYWGQGTQVTVSS	high polyreactivity
QVQLVESGGGLVQAGGSLRLSCAASGYTFTHYAMGWYRQAPGKERELVASISQSGGSTYYPDSVKGSFTISRDNAQYTVYGQMNSLKPEDTAVYYCAVDYYYDQSLYEYCGQGTQVTVSS	high polyreactivity
QVQLVESGGGVVQAGGSLRLSCAASGRIFIYYTMGWYRQAPGKEREFVAAITYSGGSTRYADSVKGRFTISRDNAKNTVYLQMNSLKPEDTAFYYCAAKFSVRRGFDYWGQGTQVTVSS	low polyreactivity
QVQLVESGGGLVQAGGSLRLSCAASGRTFPSYAMGWYRQAPGKERELVAAITRGGSTNYADSVKGRFTISRDNAKNTVYLQMNSLKPEDTAVYYWAAARWRWQLARDDYWGQGTQVTVSS	high polyreactivity
QVQLVESGGGLVQAGGSLRLSCAASGSTFSQYAMGWYRQAPWKERELVAAITSTGGSTYYADSVKGRFTISRDNAKNTVYLQMNSLKPEDTAVYYCYPYIRDPKYNYWGQATQVTVSS	low polyreactivity
QVQLVESGGRLVQAGVSLRISSAASGYISRVYAMGWYRHAPGKERELVAAITRSTTYYADSVKGRFTISRDNAKNTVYLQMNSLKPEDTAVDYCNADWASPGQVRMYYWGQGTQVTVSS	high polyreactivity
